According to patent US20140235820A1, “METHODS AND COMPOSITIONS FOR MODULATING THE Wnt PATHWAY” (Genentech, Inc., priority 2010, published 2014):
Substitutions are numbered along the chain they refer to.

How the values were obtained:
[1] = biological target: T1, LRP6 E2 (Homo sapiens, UniProt O75581); assay: Biolayer interferometry binding to LRP6 E2
T1 construct: construct E2-amino acids D235-E631 of LPR6; made in house; host or cells: Tni insect cells (baculovirus, secreted)
T1 sequence (O75581 325-631 limits assumed): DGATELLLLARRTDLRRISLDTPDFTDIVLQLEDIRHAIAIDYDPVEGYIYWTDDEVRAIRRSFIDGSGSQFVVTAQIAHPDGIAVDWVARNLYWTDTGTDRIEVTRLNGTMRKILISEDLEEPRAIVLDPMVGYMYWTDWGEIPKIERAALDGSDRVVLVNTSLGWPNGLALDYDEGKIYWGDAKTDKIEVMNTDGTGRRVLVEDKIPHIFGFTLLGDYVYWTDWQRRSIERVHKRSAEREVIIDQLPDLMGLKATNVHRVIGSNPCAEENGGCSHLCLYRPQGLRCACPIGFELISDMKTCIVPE
Description: (§1) Binding kinetics were measured by biolayer interferometry using an Octet Red instrument (ForteBio) as previously described (11). Streptavidin (SA) biosensors were loaded with biotinylated hLRP6 in 50 mMTris, pH 8, 300 mM NaCl, 5% (v/v) glycerol, and 0.05% (w/v) Triton X-100. The loaded biosensors were washed in the same buffer before carrying out association and dissociation measurements for the indicated times. The Kd of each interaction was determined using steady state-analysis through the Octet Red software v6.3. Each reported value represents an average of three or more experiments at different concentrations, with a fitted experimental curve for which the square of the correlation coefficient (R^2) is above 0.96.
The interaction of the different Dkks and sclerostin with various domains of LRP6 was measured using a biolayer interferometry assay (11). Purified receptors contained individual β-propeller-EGF-like units (E1, E2, or E4), two β-propellers (E1E2 or E3E4), or four β-propellers (E1E4))—as follows:
Human LRP6: construct E1E4-amino acids A20-Q1253 of LPR6; construct E1E2-amino acids A20-E631 of LPR6; construct E3E4 amino acids E631-Q1253 of LPR6; construct E1-amino acids A20-D325 of LPR6; construct E2-amino acids […]-E631 of LPR6; construct E4-T933-Q1253. The individual LRP6 β-propeller E3 could not be expressed.

[2] = biological target: T2, LRP6 E1E2 variants with LRP5 BMD substitutions (Homo sapiens, UniProt O75581, R141M); assay: Steady-state affinity for LRP6 E1E2 variants carrying LRP5 BMD substitutions; type: binding; conditions: LRP6 Arg141Met vs wild type LRP6 E1E2
T2 construct: construct E1E2-amino acids A20-E631 of LPR6; made in house; host or cells: insect cells (Tni, baculovirus)
T2 sequence (O75581 20-631 R141M): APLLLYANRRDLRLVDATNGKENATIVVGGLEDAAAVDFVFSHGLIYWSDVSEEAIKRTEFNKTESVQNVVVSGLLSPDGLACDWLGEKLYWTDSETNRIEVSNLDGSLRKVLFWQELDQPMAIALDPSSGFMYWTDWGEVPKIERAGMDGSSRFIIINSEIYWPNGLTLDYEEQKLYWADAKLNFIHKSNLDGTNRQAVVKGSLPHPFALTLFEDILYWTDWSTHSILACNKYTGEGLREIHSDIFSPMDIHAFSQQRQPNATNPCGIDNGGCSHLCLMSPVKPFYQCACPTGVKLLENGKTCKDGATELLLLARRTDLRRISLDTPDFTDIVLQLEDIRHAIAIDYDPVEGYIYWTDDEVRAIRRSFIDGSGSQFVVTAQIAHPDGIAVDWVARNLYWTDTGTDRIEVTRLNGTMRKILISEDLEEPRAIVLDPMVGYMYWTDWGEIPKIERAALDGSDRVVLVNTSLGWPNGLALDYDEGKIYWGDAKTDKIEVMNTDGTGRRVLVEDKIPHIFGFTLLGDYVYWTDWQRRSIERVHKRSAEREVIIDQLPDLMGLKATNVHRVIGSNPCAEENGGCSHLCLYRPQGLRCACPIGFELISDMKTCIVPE
Description: (§2) FIG. 13. Introduction of LRP5 BMD substitutions into LRP6 E1E2 lowers affinity for Wnt inhibitors. The five substitutions characterized are indicated on the y-axis. Steady-state affinity measurements were made for Wnt9b, Dkk1, and sclerostin binding to each of the LRP6 variants.
as §1
(§3) Cells transfected with LRP5 variants carrying BMD mutations show reduced binding to sclerostin and are less sensitive to sclerostin inhibition of Wnt10b or Wnt6 signaling (70). To further test the effects of the BMD substitutions, we introduced several of them into LRP6 E1E2, with the results shown in FIG. 13. LRP6 E1E2 Gly158Val could not be expressed in insect cells. […] Importantly, not only is the binding to sclerostin affected (70), but the binding of Dkk1 to its E1 interaction site is also impaired.

[3] = system: LRP6 E1E2 variants with LRP5 BMD substitutions; assay: as above; type: binding, human
Description: as §2, §1, §3

[4] = biological target: T3, LRP6 E1E2 variants with LRP5 BMD substitutions (Homo sapiens, UniProt O75581, N185S); assay: as above; type: binding; conditions: LRP6 Asn185 to Ser vs wild type LRP6 E1E2
T3 construct: construct E1E2-amino acids A20-E631 of LPR6; made in house; host or cells: insect cells (Tni, baculovirus)
T3 sequence (O75581 20-631 N185S): T2 sequence (O75581 20-631 R141M) with M122R, N166S
Description: as §2, §1, §3

Row | Substance | binding to LRP6 E2 (in words) [1] | loss in affinity for LRP6 E1E2 Arg141Met [2] [fold] | effect of LRP6 BMD mutations on binding to LRP6 E1E2 (in words) [3] | loss in affinity for LRP6 E1E2 Asn185Ser [4] [fold]
1 | sclerostin: Sclerostin protein, Wnt pathway inhibitor, expressed in insect cells (LPNAIGR) | very weak or non-specific binding | 31 | disrupt the binding | 59
2 | Dkk1: Dickkopf 1 protein, Wnt pathway inhibitor, expressed in insect cells (NSNAIKN) | Partial binding | 29 | disrupt the binding | 183
